We go through one molecule from article PMC3656048, “SAP97 Controls the Trafficking and Resensitization of the Beta-1-Adrenergic Receptor through Its PDZ2 and I3 Domains” (PLoS ONE, 2013).

The test deals with T1, GST-PDZ2 of SAP97 (rat).
T1 chain: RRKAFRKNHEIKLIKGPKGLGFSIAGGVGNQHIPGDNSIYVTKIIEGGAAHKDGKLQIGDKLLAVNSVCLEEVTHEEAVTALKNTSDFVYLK
Nature of the test: pull-down; solubilized membranes of HEK-293 cells expressing 1.2 pmoles of FLAG ß1-AR per mg protein mixed with increasing concentrations of GST-PDZ2; GST pull-downs probed with anti-ß1-AR antibody, optical densities, estimated EC50, n = 3. The settings on record: one partner purified.

B1: full length WT FLAG ß1-AR (receptor)
chain: not shown
notes: human ß1-adrenergic receptor, wild type; also called FLAG-tagged WT ß1-AR; WT ß1-AR; not shown: FLAG, N-terminal, kept
As to B1, the 50% effective concentration (EC50) is roughly 1000 nM.
